Consider 17 sequences from the DeepSol protein solubility set.

A short description of the data set: soluble on expression in E. coli; label from the status in PepcDB or PDB records.
For the sequence “MKQKRSSSGLKKRIFSTFGKASEERPSLLLLDLPIDILLAITKQLDTETRMIVRKVSPAFRDIIDYQGSGVKTMKIGKDCITIDWKRIEYREGVHCSCLIIYQGHIKTKIYESPQSLMFQDLSILLKSPRIRLSWLDLAPISCTSYNWTGVDVNSIVKILEPIKSRHIERVYFQDINYAEVVLILQKFKAGFLREISLDSEQINGWSIPQIGGMVHLEQWKRAQHLKIHSFVNLDPLINHISHFHTIQLLCQSMSKLQMLKWKEIINTSKTLVKCVLRGNANFAGLARVFDPAFEQAYGNISYVSADEFNCTIRFMPENFCIMKLK”, the “soluble on expression in E. coli” value is given as “not soluble”.
Then “MKQLWFAMSLVAASLFFSANASADPASGALLQQMNIASQSLNYELSFVSITKQGVESLRYRHARLDGRPLAQLLQLDGPRREVVQRGNEISYFEPGLEPFTLNGDYIVDSLPSLIYTDFKRLAPYYDFISVGRTRIADRLCEVIRVVARDGTRYSYIVWMDMDTKLPMRVDLLDRDGETLEQFRVIAFTVSQDIGSNMQALAKANLPPLLSVPGGEKTKFNWSPSWVPQGFSEVSSSRRPLPTMDNLPIESRLYSDGLFSFSVNVNRATQNSSDQMLRTGRRTVYSSVRDNAEITIVGELPPQTAKRIADSIKFRAVQ”, with “not soluble”; and “MKQSKIIVAGIGPGSEQDITPAVLAAVREADVVVGYKYYFRFIRDFVRPDAECIDTGMKRERARAEQAFEYAEQGKTVCVISSGDAGIYGMTPLIYEMKRERQSNVEIIALPGI”, with “not soluble”; and “MKQVSRSALVSFSAEQMFNLVNDVAKYPEFLPGCSGSRIIESSGNGMVASVDVAKAGISKTFTTSNELIPGQAIMMNLVDGPFKTLRGGWIFTALDEQACKVELKLEFEFSSKMIEMAFGKIFNELTSNMVNAFTKRAKQVYECYEYLEHHHHHH”, with “not soluble”.
The entry for “MKQVTVLLIGLGRMGSRFFDKFVEIGEERVKIVGVCELNEQNPKVLEAKKRNIPLYPSYKEALTDLHESVDIILDTSNISEVKRDIRELLSRQNNQHSVLLPMVADYLLWYMLPNAEEIPQDHTDIGY” is “not soluble”.
Then “MKREILLERIDKLKQLMPWYVLEYYQSKLAVPYSFTTLYEYLKEYDRFFSWVLESGISNADKISDIPLSVLENMSKKDMESFILYLRERPLLNANTTKQGVSQTTINRTLSALSSLYKYLTEEVENDQGEPYFYRNVMKKVSTKKKKETLAARAENIKQKLFLGDETEGFLTYIDQEHPQQLSNRALSSFNKNKERDLAIIALLLASGVRLSEAVNLDLRDLNLKMMVIDVTRKGCKRDSVNVAAFAKPYLENYLAIRNQRYKTEKTDTALFLTLYRGVPNRIDASSVEKMVAKYSEDFKVRVTPHKLRHTLATRLYDATKSQVLVSHQLGHASTQVTDLYTHIVSDEQKNALDSL”, with “not soluble”; and “MKRILIVTGQSGSGKSSALQVLEDLGYYCIDNLPLALLPEIVAKLDHENNLEQLALGVDVRSTRADMQEFDLVFEQLQKHGTVDVIYLTTQDQELIARFSASRRPHPLASRFKSLNECIQEEKQLLLPIQFRSTVHIDTTDKSVHDLKHTLLSKLGQSDKLILILQSFGYKHGIPLDADYVFDVRHLPNPHWDLELRRFSGLDEPVRRFLESSDQTNEMFDDIFHFLDKWLPVFAEGHRHYMTVSIGCTGGQHRSVYIVDRLKKALEAKWSIQVLHREMKHWS”, with “not soluble”; and “MKRLWKKVGSGVKNANYLKKSVEEVAKIEKGETKVVPPKYPTEKSREVSEEIKKELAMKNESLVENMNKMYIKSTDPVERWTSTKDLPTRESEFLHRNDPIWEYGFYEPPVERIPKDKLMFKEALEYLRFRQELLSDSSSPAQKKQAAEFVADHVVTSRVNAETLDDIYEYFRPFERKDKQKVVNRHALAALQDHVQGNSDERRILDEAKDVGKKIRHISNNTKFLDEYQRLEDEEKDKVREAIAQLRQEEHERLNKRLGQLGEIEKTAQEAMKKAVEEKKEK”, with “not soluble”.
For “MKRRRLLQSLLAGLALQPFLAASANVRIRQARAWNSSESWRLVLELDGPPRYRTFSLQAPERLILDLPDAQLLATLSELPLDGPVRAIRSGQLGGGGTRIVLDLRQAVRPRSFALEPQAGKGHRLVLDLYPQALAAPPEPMLALARPLPSTGRDILVVVDAGHGGKDPGAVGSKGEREKDVALAIARLLARRIDREKGFKARLVRNGDVFVPLRKRPEVARRYNADMFVSVHADAAPRLTASGASVYALSEHGASSTMARWMAERENGADLIGNSGNLPLQGRDKVLAGVILDMALSSTIASSLDLGHSVLGQLSDVTALHQKRVEQAGFAVLKSPDIPSILVETGFISNRGDCRRLMDERHRQRLAEAIFAGVQGYFRQRPPAGSYLAALSAQPPG”, the “soluble on expression in E. coli” value is given as “not soluble”.
The entry for “MKSAELKYLDFEDFTKLIALAKEKINPIYSSSFMIYIAAMTGMRFSELLGLTWDNVDFEKGQIYVKRTWDIYKNNFAPTKNDQSVRFLAIDSSTMQVMINYKEQQEKLLKRLEIEPEHPFVFYNIKNGLITNNSLNKQLRNMCKKLGFKKIITCHGLRHTHASTMLYKGINILYVSKRLGHSSLNVTMSVYSHILKELEEKDNENIKKIFSEINDELEHHHHHH” is “soluble”; for “MKSKFMIHQIFSNYCSKNTRLHTLLYKTFVRPILEYGTEVSSPLKKQDIKAIESVQNSFTRKLYSRQKGKYIRTDDPDYKSAIQRNELFNLSTLEARRKAIDKVFLSKMLVNKVDIDTDQFFKIDKNSKTRTKTKFIWGKCKTKLRRHFFTNRVLSSIKISAMNLILAPHVLCMFNTFTHYSSP” it is “not soluble”; for “MKSSMAMIKHKKELVEYARHLKLPNLAEHVGVILHEAQEKQLTYSEFLANCLAREIQGRERKSYLTRLKLSGLPAKYDLDLYDYDRAEGMDNRRLRELRELVWVNQAYNLLLVGPSGTGKTFIAAGLVYEAVKAGYEAYLMTLEELLTCLKTKEVSAHAMKTYKRIMKARLLAIDDATLFPLKREEAVLLFKLVNDFQERTSLIITANKALTRWLETLEDEAVTAALLDRLLYCCEIIRLGGTSYRMQNRKTIFSNQNTDIGTLEHHHHHH” it is “not soluble”.
Then “MKSVGLITEYNPFHNGHQYHINQSKKLTNADVTIAIMSGNFVMRGEPAIYNKFTRAKMALSTADLVIELPATASLSSGDHFAELAVKVADYMSVDTIAFGSENNDIKTLKQLAHSINEIEQSESFSQKVKEGKSYPRIISELLEHHEALASPNNILGISYLKAIAKNAKNINAISIKRENAQHHDSLIQHHQFASGTSIRTSIISQDDHWHHVVPKDIQHLYVTPHITLNQIFPYLKYQIIAMTTDSLKNIYTVTEGFENRLKSNIYEATDFHHFVKLLKTKRYTYTHIQRLLMNVLLNIKPTDVTSNIHAVKVLAMNDRGRQYLKHLKTAFPERQYITNINKSNAHYFTNEIKATHIYNAISGQQQTDFNTPVIQQYR”, with “not soluble”; and “MKSYHKELWMEVPSRMDFVNITRDVSRALDESGIREGLCLVNAMHITASVFINDDEPGLHADYKQWLEELAPHNPSHYQHNRTGEDNGDAHHKRQIMGREVVVAVTKGELHLGPWEQIFYGEFDGRRRKRVLIKIIGALEHHHHHH”, with “soluble”.
Then “MKSYQPKSLLNDLQYYITPPHDCSYLDNKSARMVFLDPIHRIDVVTLSELSRVGFRRSGDFVYRPECHLCRQCLSCRVPVHDFNMNSLQKKAWKRNQDLRMSIVPTHAATSVHYQLYERYINERHADGDMFPPSLDQFEKFLVHSCTESFFLELWKDDRLICVSTCDLMDDGLSAVYTFFDPDENRRSLGVFAILKQLEYVKSIDLDYLYLGYWVPHSQKMNYKSQYIPLELLLDGQWRRLNRALSQEEISQLGESLMTILPSEWNSMIIKLEHHHHHH”, with “not soluble”; and “MKTIYLYKAQIPEGKNKGDNAILITNQTVIDKLEKAAKEDGKSGTQVSTIASKSTTKENQENKIIGYTSTDNLREDNKNIFDIDDLNDEKYDRKIIVSATEEVLEQSNTLQSEEAVVLPAPAKYKASDSTKIAITQEPNLIGIHANEKENEETRKFVNW”, with “soluble”; and “MKTKNEPKVILELAKESDLPEFQKKLQEAFAIAVIETFGDCEDGPIPSDNDVQESFNAPGAVVYHILQDGKNVGGAVVRINSQTNHNSLDLFYVSPEYHSQGIGLSAWKAIEAQYPDTVLWETVTPYFEKRNINFYVNKCGFHIVEFYNEHHSNPHMHRNGREDDKPLLNDDDFFRFVKIMKKKD”, with “not soluble”.
